In PMC4717663 one finds fold-lower affinity than for αVβ6 data, which are given here for one substance.

This experiment has as its target soluble αVβ3 headpiece (human) (UniProt P06756). The experiment in a line: fluorescence polarisation.

“nonapeptide containing RGD from pro-TGF-β3”: the fold-lower affinity than for αVβ6 was 1000 fold.
